One substance from article PMC3944813 can be followed below.

This test addresses NadRh from M. tuberculosis (NadR homolog) (M. tuberculosis). Description: SEC. In general terms: Size exclusion chromatography separates by hydrodynamic size, large species first.

By stoichiometry N is commonly meant a count of units in the complex or per binding partner. Regarding “NadRh from M. tuberculosis (NadR homolog) (natural protein)”, the stoichiometry N was determined as 2.
